Here are results for 1 molecule from publication PMC2688778 (Structure (London, England : 1993), 2009).

Positions count from the first letter of the chain named.

What all share (test): fluorescence anisotropy
(In general: Fluorescence polarisation rises when a labelled molecule tumbles more slowly, as on binding a larger partner.)

Data set [1] deals with T1, lambda exonuclease (bacteriophage lambda, UniProt P03697 1-226).
T1 sequence: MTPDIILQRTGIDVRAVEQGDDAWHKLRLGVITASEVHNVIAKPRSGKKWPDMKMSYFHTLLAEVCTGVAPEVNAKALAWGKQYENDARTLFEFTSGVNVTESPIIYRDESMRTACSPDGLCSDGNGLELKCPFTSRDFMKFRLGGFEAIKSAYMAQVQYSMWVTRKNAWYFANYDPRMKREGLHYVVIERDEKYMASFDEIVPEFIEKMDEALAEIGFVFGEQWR

Data set [2] deals with T2, RecE564 H609A (Escherichia coli K12, UniProt P15032 564-866, H609A).
T2 sequence: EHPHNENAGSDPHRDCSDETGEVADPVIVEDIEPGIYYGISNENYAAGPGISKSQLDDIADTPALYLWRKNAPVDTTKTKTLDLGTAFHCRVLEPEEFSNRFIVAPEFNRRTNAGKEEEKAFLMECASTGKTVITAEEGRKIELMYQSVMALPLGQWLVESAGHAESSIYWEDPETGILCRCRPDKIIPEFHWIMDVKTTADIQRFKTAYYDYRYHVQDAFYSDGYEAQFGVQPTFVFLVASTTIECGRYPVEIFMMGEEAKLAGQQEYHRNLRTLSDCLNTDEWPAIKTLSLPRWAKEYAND

Data set [3] concerns the target T3, RecE564 P658L (Escherichia coli K12, UniProt P15032 564-866, P658L).
T3 sequence: T2 sequence with A46H, P95L

Data set [4] addresses T4, RecE564 WT (Escherichia coli K12, UniProt P15032 564-866).
T4 sequence: T2 sequence with A46H

Data set [5] deals with T5, RecE564 T675A (Escherichia coli K12, UniProt P15032 564-866, T675A).
T5 sequence: T2 sequence with A46H, T112A

For data set [6], the target named is T6, RecE564 H652A (Escherichia coli K12, UniProt P15032 564-866, H652A).
T6 sequence: T2 sequence with A46H, H89A

The target in data set [7] is T7, RecE564 F665A (Escherichia coli K12, UniProt P15032 564-866, F665A).
T7 sequence: T2 sequence with A46H, F102A

B1: F25 (dsDNA)
DNA 1: TAGAGCTTAATTGCTGAATCTGGTG
DNA 2: CACCAGATTCAGCAATTAAGCTCTA
For B1, the Kd (usually the constant that tells how readily two partners part at equilibrium) in data set [1] worked out at 0.161 ± 0.002 µM; in data set [2] it was 0.05 ± 0.003 µM; in data set [3], 0.08 ± 0.01 µM; in data set [4] it was 0.07 ± 0.002 µM; in data set [5] it was 0.65 ± 0.03 µM; in data set [6], 0.13 ± 0.01 µM. Further, binding in data set [7] was put at a Kd of 0.2 ± 0.02 µM.
